Measured values as given in US20250043019A1 (Janssen / Centocor, published 2025).

B1: CD20 binding arm of C923B169 tested as scFv (scFv)
chain: EIVLTQSPATLSLSPGERATLSCRASLSVSSMHWYQQKPGQAPRLLIYATSNLASGIPARFSGSGSGTDFTLTISSLEPEDFAVYYCQQWIFNPPTFGGGTKVEIKGGSEGKSSGSGSESKSTGGSQVQLVQSGAEVKKPGSSVKVSCKASGYTFSSYNMHWVRQAPGQGLEWMGAIYPGAGDTSYAQKFQGRVTITADESTSTAYMELSSLRSEDTAVYYCARSNYYGSSGWYFDVWGKGTTVTVSS
B2: C923B38 CD79bxCD20xCD3 trispecific antibody (other)
heavy: QVQLQESGPGLVKPSETLSLTCSVSGASISSFYWSWIRQPADEGLEWIGRISPSGKTNYIPSLKSRIIMSLDASKNQFSLRLNSVTAADTAMYYCARGEYSGTYSYSFDVWGQGTMVTVSSASTKGPSVFPLAPSSKSTSGGTAALGCLVKDYFPEPVTVSWNSGALTSGVHTFPAVLQSSGLYSLSSVVTVPSSSLGTQTYICNVNHKPSNTKVDKKVEPKSCDKTHTCPPCPAPEAAGGPSVFLFPPKPKDTLMISRTPEVTCVVVSVSHEDPEVKFNWYVDGVEVHNAKTKPREEQYNSTYRVVSVLTVLHQDWLNGKEYKCKVSNKALPAPIEKTISKAKGQPREPQVYTLPPSREEMTKNQVSLSCAVKGFYPSDIAVEWESNGQPENNYKTTPPVLDSDGSFFLVSKLTVDKSRWQQGNVFSCSVMHEALHNRFTQKSLSLSPGK
light: DIVMTQSPLSLSVTPGEPASISCRSSESLLDSEDGNTYLDWFLQKPGQSPQLLIYTLSYRASGVPDRFSGSGSDTDFTLHISSLEAEDVGLYYCMQRMEFPLTFGQGTKVEIKRTVAAPSVFIFPPSDEQLKSGTASVVCLLNNFYPREAKVQWKVDNALQSGNSQESVTEQDSKDSTYSLSSTLTLSKADYEKHKVYACEVTHQGLSSPVTKSFNRGEC
chain: EIVLTQSPATLSASPGERVTLSCSASSSVSYMNWYQQKPGQAPRRWIYDSSKLASGVPARFSGSGSGRDYTLTISSLEPEDFAVYYCQQWSRNPPTFGGGTKVEIKGGSEGKSSGSGSESKSTGGSQVQLVQSGAEVKKPGSSVKVSCKASGYTFTRSTMHWVKQAPGQGLEWIGYINPSSAYTNYNQKFQGRVTLTADKSTSTAYMELSSLRSEDTAVYYCASPQVHYDYAGFPYWGQGTLVTVSSEPKSSDKTHTCPPCPAPEAAGGPSVFLFPPKPKDTLMISRTPEVTCVVVSVSHEDPEVKFNWYVDGVEVHNAKTKPREEQYNSTYRVVSVLTVLHQDWLNGKEYKCKVSNKALPAPIEKTISKAKGQPREPQVYTLPPSREEMTKNQVSLWCLVKGFYPSDIAVEWESNGQPENNYKTTPPVLDSDGSFFLYSKLTVDKSRWQQGNVFSCSVMHEALHNHYTQKSLSLSPGKGGSEGKSSGSGSESKSTGGSAIQLTQSPSSLSASVGDRVTITCRASSSVSYIHWFQQKPGKAPKPLIYATSNLASGVPSRFSGSGSGTDFTLTISSLQPEDFATYYCQQWTSNPPTFGQGTKLEIKGGSEGKSSGSGSESKSTGGSQVQLVQSGAEVKKPGSSVKVSCKASGYTFTSYNMHWVRQAPGQGLEWMGAIYPGNGDTSYAQKFQGRVTITADKSTSTAYMELSSLRSEDTAVYYCARSTYYGGDWYFNVWGQGTLVTVSS
notes: Trispecific IgG1: CD79b Fab arm (HC1/LC) plus one chain CD3 scFv-Fc-CD20 scFv; also called CD9B374 / CD3B2030-N106A-scFv-LH-C20B22

How the values were obtained:
[1] = target: T1, human CD20 on the cell surface (human, UniProt P11836 1-297); assay: cell-based binding on CARNAVAL cells
T1 construct: whole, on cells; On B-lymphoma lines, primary B cells, K562 CD20 or HEK293 transfectants; also called MS4A1; B-lymphocyte antigen CD20
T1 sequence (looked up): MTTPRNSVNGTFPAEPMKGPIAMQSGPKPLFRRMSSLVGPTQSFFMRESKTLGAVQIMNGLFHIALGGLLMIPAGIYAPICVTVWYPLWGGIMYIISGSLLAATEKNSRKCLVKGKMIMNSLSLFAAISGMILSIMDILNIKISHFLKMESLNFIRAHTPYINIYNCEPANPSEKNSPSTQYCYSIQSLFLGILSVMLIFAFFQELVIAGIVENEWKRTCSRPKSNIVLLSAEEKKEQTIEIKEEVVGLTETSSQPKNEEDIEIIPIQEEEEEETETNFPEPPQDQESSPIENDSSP

[2] = target: T2, cynomolgus monkey CD79b antigen (cynomolgus monkey); assay: SPR
T2 construct: also called cyno CD79b; CD9W1.001

| Binder | EC50 [1] | Kd [2] |
| --- | --- | --- |
| B1 | 16 nM | – |
| B2 | – | > 3000 nM |
